According to US10590386B2, “Methods and compositions for preparing cardiomyocytes from stem cells and uses thereof” (Insitute of Biophysics, Chinese Academy of Sciences, priority 2010, dated 2020):
“Also recorded” adds a separate entry of the source. Like-named read-outs stand apart in the source and are kept apart here.

B1: Noggin: BMP antagonist protein, added at 250 ng/ml (protein, UniProt Q13253 28-232, looked up)
Noggin: QHYLHIRPAPSDNLPLVDLIEHPDPIFDPKEKDLNETLLRSLLGGHYDPGFMATSPPEDRPGGGGGAAGGAEDLAELDQLLRQRPSGAMPSEIKGLEFSEGLAQGKKQRLSKKLRRKLQMWLWSQTFCPVLYAWNDLGSRFWPRYVKVGSCFSKRSCSVPEGMVCKPSKSVHLTVLRWRCQRRGGQRCGWIPIQYPIISECKCSC

Experiments:
Type in all cases: cell-based, human
[1] = system: hESC-derived cardiomyocytes; assay: Effect of nifedipine on AP duration of hESC-derived cardiomyocytes (patch clamp); settings: myocytes from Noggin+RA-treated cultures; FIG. 4B right
Protocol: […] to 90 day-old differentiated cultures were washed in a low Ca^2+ solution, and then incubated in an enzyme solution for 20 min at 37° C. The dissociation was completed in KB solution by gently shaking for 40 min at room temperature. The isolated cells were resuspended in DMEM plus 10% FBS, and transferred on 0.1% gelatin-coated glass coverslips, and then kept in an incubator at 37° C., 5% CO2. The composition of the low Ca^2+ solution was (in mM):120 NaCl, 5.4 KCl, 5 MgSO4, 5 Na pyruvate, 20 glucose, 20 taurine, 10 HEPES. The pH was adjusted to 7.3 with NaOH. KB solution contained (in mM): 85 KCl, 30 K2HPO4, 5 MgSO4, 1 EGTA, 2 Na2ATP, 5 Na pyruvate, 20 glucose, 20 taurine, 5 creatine, adjusted to pH 7.3 with KOH.
Action potentials of cardiomyocytes were recorded in a whole-cell patch clamp configuration, using an Axon 200B amplifier (Axon Instruments) at room temperature. Data were digitized at 20 kHz and filtered at 2 kHz, and were analyzed by PClamp 9.0. Patch pipettes (2-4MΩ resistance) were filled with an intracellular solution containing (in mM) 50 KCl, 60 K-Aspartate, 1 MgCl2, 3 Na2ATP, 10 EGTA, 10 mM HEPES, adjusted to pH 7.3 with KOH. Normal Tyrode's solution was used as an extracellular solution and contained (in mM) 140 NaCl, 5 KCl, 1 CaCl2, 1 MgCl2, 10 glucose, 10 HEPES, adjusted to pH 7.4 with NaOH.

hESC line H7 [2] = assay: Immunostaining and Western blotting of cardiac markers in 60 day-old differentiated cultures
Protocol: (§1) Undifferentiated hESC line H7 from the WiCell Research Institute was maintained on matrigel-coated plates, as previously described^37. In the basic cardiac induction protocol (BP), undifferentiated hESCs were seeded on gelatin-coated plates at a density of 1-5×10^5 cells/cm^2 and cultured with mouse embryonic fibroblast conditioned medium for 3 days until fully confluent. To initiate cell differentiation, the medium was changed to RPMI1640, supplemented with B27 (Invitrogen). Cells were treated with 25 ng/ml BMP4 and 6 ng/ml bFGF at day 1, 100 ng/ml activin A at day 2, and 200 ng/ml DKK1 (R&D Systems) from day 6 to day 11. The medium was changed every 3 days after day 11 (FIG. 1). 250 ng/ml Noggin, 1 μM RA (Sigma) or 1 μM RAi were added to the cell culture at the times specified in FIGS. 1A-C. Spontaneous beating clusters were typically observed at days 10 to 11. Cardiac differentiation efficiency was analyzed on day 14 with CTNT antibody staining and flow cytometry.
Sixty (60) day-old differentiated cultures were digested with 0.25% trypsin-EDTA, and the cells were plated on gelatin-coated coverslips for 5 days, allowing full attachment to occur. Cells were then fixed in 4% paraformaldehyde, and incubated with primary antibodies of mouse anti-human CTNT (R&D systems), mouse anti-human α-Actinin (Sigma), mouse anti-human β-MHC (ATCC), mouse anti-human MLC-2a (Synaptic Systems), or rabbit anti-human MLC-2v (ProteinTech Group). Goat anti-mouse secondary antibody conjugated with DyLight 488 (Santa Cruz Biotechnology) and goat anti-rabbit secondary antibody conjugated with Tritc (Santa Cruz Biotechnology) were used as needed. After the nuclei were counterstained with 4′,6-diamidino-2-phenylindole (DAPI, Sigma), immunofluorescence images were visualized and recorded using an Olympus microscope system X51 or Olympus LSCM FV1000.
One well of a 24-well plate of 60 day-old differentiated cells was lysed with RIPA lysis buffer (Biomiga) for Western blotting. […]

hESC line H7 [3] = assay: Cardiac differentiation efficiency of hESCs, CTNT antibody staining and flow cytometry on day 14
Protocol: as §1
Differentiated cell clusters were dissociated into single cells with 0.25% trypsin-EDTA, which were then fixed and stained with anti-human CTNT antibody (R&D Systems) and goat anti-mouse FITC-conjugated secondary antibody (Santa Cruz) in PBS plus 0.5% BSA and 0.1% saponin (Sigma) at 4° C. Stained cells were kept in 4% paraformaldehyde for subsequent quantitative analysis. Data were collected using FACScalibur (Becton Dickinson) and analyzed with FlowJo software (Treestar).

BMP signaling = assay: Western blot for phosphorylated Smad1,5,8; settings: data not shown
Protocol: One well of a 24-well plate of 60 day-old differentiated cells was lysed with RIPA lysis buffer (Biomiga) for Western blotting. Blots were incubated with mouse anti-human CTNT, mouse anti-human β-MHC, rabbit anti-human MLC-2v, goat anti-ANF, mouse anti-human MLC-2a, mouse anti-human β-actin, rabbit anti-phospho smad1/5/8 and rabbit anti-smad1/5/8 separately, and then with HRP-conjugated goat anti-mouse or anti-rabbit antibody.

| Molecule | effect on duration of atrial-like APs [1] | β-MHC expression (western blots) (hESC line H7 [2]; 60 day old RA and RAi treated cultures (with Noggin), FIG. 6) | effect on cardiac differentiation efficiency / cardiogenesis of hESCs (summary statement) (hESC line H7 [3]) | effect on cardiac differentiation (hESC line H7 [3]; RAi added between days 6 to 9, FIG. 1C) | effect on cardiac differentiation efficiency / cardiogenesis of hESCs (summary statement) (hESC line H7 [3]; listed as BMS-189453) | cTNT positive cells that are also MLC-2v positive (hESC line H7 [2]; 60 day old cultures, immunostaining, FIG. 5) | MLC-2v expression (Western blotting) (hESC line H7 [2]; 60 day-old cultures, FIG. 3C, FIG. 5) | activities of BMP signaling (phosphorylated Smad1,5,8) (BMP signaling) | effect on cardiac differentiation (hESC line H7 [3]; Noggin present between days 2 and 3, FIG. 1B) | effect on cardiac differentiation (hESC line H7 [3]; Noggin present between days 2.5 and 4.5, FIG. 1B) | effect on cardiac differentiation (hESC line H7 [3]; Noggin present between days 4 and 5, FIG. 1B) | differentiation efficiency (CTNT+ cells, flow cytometry) (hESC line H7 [3]; day 14 cultures, Noggin on days 4 and 5, RAi from days 6 to 8, mean±s.e.m, FIG. 1D) |
| --- | --- | --- | --- | --- | --- | --- | --- | --- | --- | --- | --- | --- |
| COC(=O)C1=C(C)NC(C)=C(C(=O)OC)C1c1ccccc1[N+](=O)[O-] [nifedipine] | No significant effect | – | – | – | – | – | – | – | – | – | – | – |
| CC1(C)CC=C(c2ccccc2)c2cc(/C=C/c3ccc(C(=O)O)cc3)ccc21 [RAi, BMS-189453, reference compound] | – | evenly expressed | significantly promote cardiogenesis | markedly increased | significantly increase | – | – | – | – | – | – | – |
| B1 | – | – | significantly increase; also recorded: significantly promote cardiogenesis | – | – | about 35% | weak MLC-2v expression | reduced the activities of BMP signaling | slightly repressed | significantly promoted | Highest cardiac differentiation efficiencies | 50%±3.06% |
